Measurements taken from the Human Domainome abundance scans (Beltran et al. 2025).
± gives the uncertainty stated by the source.

B1: Chromodomain-helicase-DNA-binding protein 3, residues 374 to 426; numbered along this chain, Q12873 (parent)
chain: YETDHQDYCEVCQQGGEIILCDTCPRAYHLVCLDPELDRAPEGKWSCPHCEKE

Variants of: B1
Test: abundance fitness (aPCA) (normalised: wild type 0, dead -1); higher = more abundant; growth selection in yeast, the domain comes from the species named
Conditions: Homo sapiens

Q: With A40V as the variant, how does the abundance fitness read?
A: -0.081 ± 0.1

Q: For A40L, which abundance fitness is on record?
A: -0.107 ± 0.1

Q: For C47T, which abundance fitness is on record?
A: -0.931 ± 0.2

Q: With C47H as the variant, how does the abundance fitness read?
A: -1.07 ± 0.38

Q: Which abundance fitness does the source give for C47W here?
A: -0.847 ± 0.18

Q: With C47G as the variant, how does the abundance fitness read?
A: -0.767 ± 0.11

Q: With C47P as the variant, how does the abundance fitness read?
A: -1.05 ± 0.22

Q: For C47A, which abundance fitness is on record?
A: -1.06 ± 0.15

Q: For C47S, which abundance fitness is on record?
A: -0.814 ± 0.16

Q: For C47R, which abundance fitness is on record?
A: -0.835 ± 0.12

Q: Which abundance fitness does the source give for C47V here?
A: -0.753 ± 0.12

Q: With C47K as the variant, how does the abundance fitness read?
A: -1.02 ± 0.28

Q: For C47F, which abundance fitness is on record?
A: -0.465 ± 0.19

Q: For C47Y, which abundance fitness is on record?
A: -0.972 ± 0.23

Q: Which abundance fitness does the source give for C47D here?
A: -0.512 ± 0.21

Q: For C47Q, which abundance fitness is on record?
A: -0.835 ± 0.31

Q: With C47M as the variant, how does the abundance fitness read?
A: -0.657 ± 0.18

Q: For C47E, which abundance fitness is on record?
A: -1.08 ± 0.21

Q: For W45M, which abundance fitness is on record?
A: -0.268 ± 0.16

Q: Which abundance fitness does the source give for W45Y here?
A: 0.171 ± 0.15

Q: With W45A as the variant, how does the abundance fitness read?
A: -0.037 ± 0.16

Q: For W45L, which abundance fitness is on record?
A: -0.218 ± 0.1

Q: For W45F, which abundance fitness is on record?
A: 0.158 ± 0.17

Q: Which abundance fitness does the source give for W45C here?
A: -0.182 ± 0.17

Q: With W45T as the variant, how does the abundance fitness read?
A: -0.143 ± 0.17

Q: For W45S, which abundance fitness is on record?
A: -0.224 ± 0.12

Q: Which abundance fitness does the source give for W45R here?
A: -0.204 ± 0.1

Q: With W45H as the variant, how does the abundance fitness read?
A: -0.101 ± 0.18

Q: For W45N, which abundance fitness is on record?
A: 0.035 ± 0.19

Q: Which abundance fitness does the source give for W45I here?
A: -0.221 ± 0.17

Q: For W45G, which abundance fitness is on record?
A: -0.312 ± 0.1

Q: With W45Q as the variant, how does the abundance fitness read?
A: 0.19 ± 0.15

Q: Which abundance fitness does the source give for W45E here?
A: -0.099 ± 0.15

Q: For W45K, which abundance fitness is on record?
A: -0.072 ± 0.16

Q: Which abundance fitness does the source give for E51M here?
A: -0.396 ± 0.16

Q: For E51Q, which abundance fitness is on record?
A: -0.533 ± 0.2

Q: With E51R as the variant, how does the abundance fitness read?
A: -0.215 ± 0.12

Q: With E51S as the variant, how does the abundance fitness read?
A: -0.158 ± 0.14

Q: For E51Y, which abundance fitness is on record?
A: -0.554 ± 0.37

Q: Which abundance fitness does the source give for E51F here?
A: -0.205 ± 0.23

Q: Which abundance fitness does the source give for E51D here?
A: -0.37 ± 0.21

Q: Which abundance fitness does the source give for E51W here?
A: -0.501 ± 0.18

Q: Which abundance fitness does the source give for E51L here?
A: -0.039 ± 0.1

Q: Which abundance fitness does the source give for E51T here?
A: -0.156 ± 0.14

Q: For E51A, which abundance fitness is on record?
A: -0.215 ± 0.095

Q: With E51P as the variant, how does the abundance fitness read?
A: -0.194 ± 0.15

Q: Which abundance fitness does the source give for E51C here?
A: -0.137 ± 0.17

Q: With E51I as the variant, how does the abundance fitness read?
A: -0.438 ± 0.26

Q: For P41K, which abundance fitness is on record?
A: -0.25 ± 0.22

Q: Which abundance fitness does the source give for P41H here?
A: -0.374 ± 0.23

Q: With P41S as the variant, how does the abundance fitness read?
A: -0.045 ± 0.11

Q: Which abundance fitness does the source give for P41W here?
A: -0.317 ± 0.12

Q: For P41E, which abundance fitness is on record?
A: -0.092 ± 0.15

Q: With P41G as the variant, how does the abundance fitness read?
A: 0.028 ± 0.097

Q: Which abundance fitness does the source give for P41N here?
A: -0.026 ± 0.19

Q: With P41A as the variant, how does the abundance fitness read?
A: -0.114 ± 0.12

Q: For P41F, which abundance fitness is on record?
A: -0.25 ± 0.2

Q: With P41C as the variant, how does the abundance fitness read?
A: -0.344 ± 0.17

Q: With P41D as the variant, how does the abundance fitness read?
A: -0.368 ± 0.2

Q: Which abundance fitness does the source give for P41T here?
A: -0.06 ± 0.14

Q: Which abundance fitness does the source give for P41L here?
A: 0.015 ± 0.1

Q: For P41I, which abundance fitness is on record?
A: -0.083 ± 0.17

Q: With P41Q as the variant, how does the abundance fitness read?
A: -0.073 ± 0.17

Q: Which abundance fitness does the source give for P41Y here?
A: -0.153 ± 0.19

Q: For P41R, which abundance fitness is on record?
A: -0.093 ± 0.092

Q: For P41M, which abundance fitness is on record?
A: -0.202 ± 0.15

Q: Which abundance fitness does the source give for E36A here?
A: -0.029 ± 0.13

Q: Which abundance fitness does the source give for E36G here?
A: -0.009 ± 0.1

Q: With E36Y as the variant, how does the abundance fitness read?
A: -0.405 ± 0.32

Q: With E36S as the variant, how does the abundance fitness read?
A: -0.335 ± 0.13

Q: With E36M as the variant, how does the abundance fitness read?
A: -0.024 ± 0.2

Q: For E36F, which abundance fitness is on record?
A: -0.083 ± 0.19

Q: With E36Q as the variant, how does the abundance fitness read?
A: -0.193 ± 0.15

Q: Which abundance fitness does the source give for E36D here?
A: -0.507 ± 0.2

Q: With E36H as the variant, how does the abundance fitness read?
A: -0.15 ± 0.23

Q: For E36L, which abundance fitness is on record?
A: -0.114 ± 0.11

Q: For E36R, which abundance fitness is on record?
A: 0.018 ± 0.11

Q: For E36N, which abundance fitness is on record?
A: 0.143 ± 0.27

Q: Which abundance fitness does the source give for E36C here?
A: 0.182 ± 0.19

Q: With E36P as the variant, how does the abundance fitness read?
A: -0.039 ± 0.15

Q: Which abundance fitness does the source give for E36T here?
A: -0.172 ± 0.26

Q: With E36W as the variant, how does the abundance fitness read?
A: -0.478 ± 0.2

Q: Which abundance fitness does the source give for E36I here?
A: -0.145 ± 0.26

Q: For E36V, which abundance fitness is on record?
A: -0.018 ± 0.1
